Article PMC11591715 (2024)

Key:
Assay in all cases: BLI
[1] = target: T1, m801.3 (anti-EpCAM-IL-2v immunocytokine, 1 anti-EpCAM Fab + 1 IL-2v, IL-2v fused at the N-terminus of the Fc … ( | human, UniProt P60568 21-153, F42A | Y45A | L72G))
[2] = target: m801.2 (anti-EpCAM-IL-2v immunocytokine, 2 anti-EpCAM Fab + 1 IL-2v, IL-2v fused at the C-terminus of IgG1 Fc) (human | , UniProt P60568 21-153, F42A | Y45A | L72G)
[3] = target: T1, m801.3 (anti-EpCAM-IL-2v …); remark: listed apart in the source

B1: IL-2 receptor β subunit (IL-2Rβ) (receptor)
chain: AVNGTSQFTCFYNSRANISCVWSQDGALQDTSCQVHAWPDRRRWNQTCELLPVSQASWACNLILGAPDSQKLTTVDIVTLRVLCREGVRWRVMAIQDFKPFENLRLMAPISLQVVHVETHRCNISWEISQASHYFERHLEFEARTLSPGHTWEEAPLLTLKQKQEWICLETLTPDTQYEFQVRVKPLQGEFTTWSPWSQPLAFRTKPAALGKDTIPWLGHLLVGLSGAFGFIILVYLLINCRNTGPWLKKVLKCNTPDPSKFFSQLSSEHGGDVQKWLSSPFPSSSFSPGGLAPEISPLEVLERDKVTQLLLQQDKVPEPASLSSNHSLTSCFTNQGYFFFHLPDALEIEACQVYFTYDPYSEEDPDEGVAGAPTGSSPQPLQPLSGEDDAYCTFPSRDDLLLFSPSLLGGPSPPSTAPGGSGAGEERMPPSLQERVPRDWDPQPLGPPTPGVPDLVDFQPPPELVLREAGEEVPDAGPREGVSFPWSRPPGQGEFRALNARLPLNTDAYLSLQELQGQDPTHLV
modifications: biotin (biotinylated antigen)
Kd [1]: 55.6 nM
koff [2]: 0.00412 s⁻¹
koff [3]: 0.00784 s⁻¹
